# Reference: publication PMC9688318, “Construction of a Versatile, Programmable RNA-Binding Protein Using Designer PPR Proteins and Its Application for Splicing Control in Mammalian Cells”
# Tests used:
# [1] = tested on: PPR2.0t19 (synthetic designer (scaffold from Arabidopsis PPR consensus)); experiment: RBP-ELISA; details: cell lysate, EMSA: 20 mM Tris-HCl pH 8.0, 150 mM NaCl, 0.5% NP-40, 1 mM DTT, 1 mM EDTA, 0.2 pmol biotin-RNA in 10 uL, 6% PAGE in 0.5x TBE, temperature not stated
# [2] = tested on: PPR2.0t19 (synthetic designer (scaffold from Arabidopsis PPR consensus)); experiment: EMSA; details: apparent; EMSA: 20 mM Tris-HCl pH 8.0, 150 mM NaCl, 0.5% NP-40, 1 mM DTT, 1 mM EDTA, 0.2 pmol biotin-RNA in 10 uL, 6% PAGE in 0.5x TBE; temperature not stated; RBP-ELISA …
# [3] = tested on: PPR2.0t15 (synthetic designer (scaffold from Arabidopsis PPR consensus)); experiment: RBP-ELISA; details: cell lysate, EMSA: 20 mM Tris-HCl pH 8.0, 150 mM NaCl, 0.5% NP-40, 1 mM DTT, 1 mM EDTA, 0.2 pmol biotin-RNA in 10 uL, 6% PAGE in 0.5x TBE, temperature not stated
# [4] = tested on: PPR2.0t15 (synthetic designer (scaffold from Arabidopsis PPR consensus)); experiment: EMSA; details: apparent; EMSA: 20 mM Tris-HCl pH 8.0, 150 mM NaCl, 0.5% NP-40, 1 mM DTT, 1 mM EDTA, 0.2 pmol biotin-RNA in 10 uL, 6% PAGE in 0.5x TBE; temperature not stated; RBP-ELISA …
# [5] = tested on: PPR2.0t23 (synthetic designer (scaffold from Arabidopsis PPR consensus)); experiment: RBP-ELISA; details: cell lysate, EMSA: 20 mM Tris-HCl pH 8.0, 150 mM NaCl, 0.5% NP-40, 1 mM DTT, 1 mM EDTA, 0.2 pmol biotin-RNA in 10 uL, 6% PAGE in 0.5x TBE, temperature not stated
# [6] = tested on: PPR2.0t23 (synthetic designer (scaffold from Arabidopsis PPR consensus)); experiment: EMSA; details: apparent; EMSA: 20 mM Tris-HCl pH 8.0, 150 mM NaCl, 0.5% NP-40, 1 mM DTT, 1 mM EDTA, 0.2 pmol biotin-RNA in 10 uL, 6% PAGE in 0.5x TBE; temperature not stated; RBP-ELISA …
# [7] = tested on: PPR2.0t14 (synthetic designer (scaffold from Arabidopsis PPR consensus)); experiment: RBP-ELISA; details: cell lysate, EMSA: 20 mM Tris-HCl pH 8.0, 150 mM NaCl, 0.5% NP-40, 1 mM DTT, 1 mM EDTA, 0.2 pmol biotin-RNA in 10 uL, 6% PAGE in 0.5x TBE, temperature not stated
# [8] = tested on: PPR2.0t14 (synthetic designer (scaffold from Arabidopsis PPR consensus)); experiment: EMSA; details: apparent; EMSA: 20 mM Tris-HCl pH 8.0, 150 mM NaCl, 0.5% NP-40, 1 mM DTT, 1 mM EDTA, 0.2 pmol biotin-RNA in 10 uL, 6% PAGE in 0.5x TBE; temperature not stated; RBP-ELISA …
# [9] = tested on: PPR2.0t1 (synthetic designer (scaffold from Arabidopsis PPR consensus)); experiment: RBP-ELISA; details: cell lysate, EMSA: 20 mM Tris-HCl pH 8.0, 150 mM NaCl, 0.5% NP-40, 1 mM DTT, 1 mM EDTA, 0.2 pmol biotin-RNA in 10 uL, 6% PAGE in 0.5x TBE, temperature not stated
# [10] = tested on: PPR2.0t1 (synthetic designer (scaffold from Arabidopsis PPR consensus)); experiment: EMSA; details: apparent; EMSA: 20 mM Tris-HCl pH 8.0, 150 mM NaCl, 0.5% NP-40, 1 mM DTT, 1 mM EDTA, 0.2 pmol biotin-RNA in 10 uL, 6% PAGE in 0.5x TBE; temperature not stated; RBP-ELISA …
# [11] = tested on: PPR2.0t4 (synthetic designer (scaffold from Arabidopsis PPR consensus)); experiment: RBP-ELISA; details: cell lysate, EMSA: 20 mM Tris-HCl pH 8.0, 150 mM NaCl, 0.5% NP-40, 1 mM DTT, 1 mM EDTA, 0.2 pmol biotin-RNA in 10 uL, 6% PAGE in 0.5x TBE, temperature not stated
# [12] = tested on: PPR2.0t4 (synthetic designer (scaffold from Arabidopsis PPR consensus)); experiment: EMSA; details: apparent; EMSA: 20 mM Tris-HCl pH 8.0, 150 mM NaCl, 0.5% NP-40, 1 mM DTT, 1 mM EDTA, 0.2 pmol biotin-RNA in 10 uL, 6% PAGE in 0.5x TBE; temperature not stated; RBP-ELISA …
# [13] = tested on: PPR2.0t11 (synthetic designer (scaffold from Arabidopsis PPR consensus)); experiment: RBP-ELISA; details: cell lysate, EMSA: 20 mM Tris-HCl pH 8.0, 150 mM NaCl, 0.5% NP-40, 1 mM DTT, 1 mM EDTA, 0.2 pmol biotin-RNA in 10 uL, 6% PAGE in 0.5x TBE, temperature not stated
# [14] = tested on: PPR2.0t11 (synthetic designer (scaffold from Arabidopsis PPR consensus)); experiment: EMSA; details: apparent; EMSA: 20 mM Tris-HCl pH 8.0, 150 mM NaCl, 0.5% NP-40, 1 mM DTT, 1 mM EDTA, 0.2 pmol biotin-RNA in 10 uL, 6% PAGE in 0.5x TBE; temperature not stated; RBP-ELISA …
# [15] = tested on: PPR2.0t24 (synthetic designer (scaffold from Arabidopsis PPR consensus)); experiment: EMSA; details: apparent; EMSA: 20 mM Tris-HCl pH 8.0, 150 mM NaCl, 0.5% NP-40, 1 mM DTT, 1 mM EDTA, 0.2 pmol biotin-RNA in 10 uL, 6% PAGE in 0.5x TBE; temperature not stated; RBP-ELISA …
# [16] = tested on: PPR2.0t5 (synthetic designer (scaffold from Arabidopsis PPR consensus)); experiment: RBP-ELISA; details: cell lysate, EMSA: 20 mM Tris-HCl pH 8.0, 150 mM NaCl, 0.5% NP-40, 1 mM DTT, 1 mM EDTA, 0.2 pmol biotin-RNA in 10 uL, 6% PAGE in 0.5x TBE, temperature not stated
# [17] = tested on: PPR2.0t5 (synthetic designer (scaffold from Arabidopsis PPR consensus)); experiment: EMSA; details: apparent; EMSA: 20 mM Tris-HCl pH 8.0, 150 mM NaCl, 0.5% NP-40, 1 mM DTT, 1 mM EDTA, 0.2 pmol biotin-RNA in 10 uL, 6% PAGE in 0.5x TBE; temperature not stated; RBP-ELISA …
# [18] = tested on: PPR2.0t3 (synthetic designer (scaffold from Arabidopsis PPR consensus)); experiment: RBP-ELISA; details: cell lysate, EMSA: 20 mM Tris-HCl pH 8.0, 150 mM NaCl, 0.5% NP-40, 1 mM DTT, 1 mM EDTA, 0.2 pmol biotin-RNA in 10 uL, 6% PAGE in 0.5x TBE, temperature not stated
# [19] = tested on: PPR2.0t3 (synthetic designer (scaffold from Arabidopsis PPR consensus)); experiment: EMSA; details: apparent; EMSA: 20 mM Tris-HCl pH 8.0, 150 mM NaCl, 0.5% NP-40, 1 mM DTT, 1 mM EDTA, 0.2 pmol biotin-RNA in 10 uL, 6% PAGE in 0.5x TBE; temperature not stated; RBP-ELISA …
# [20] = tested on: PPR2.0t2 (synthetic designer (scaffold from Arabidopsis PPR consensus)); experiment: RBP-ELISA; details: cell lysate, EMSA: 20 mM Tris-HCl pH 8.0, 150 mM NaCl, 0.5% NP-40, 1 mM DTT, 1 mM EDTA, 0.2 pmol biotin-RNA in 10 uL, 6% PAGE in 0.5x TBE, temperature not stated
# [21] = tested on: PPR2.0t2 (synthetic designer (scaffold from Arabidopsis PPR consensus)); experiment: EMSA; details: apparent; EMSA: 20 mM Tris-HCl pH 8.0, 150 mM NaCl, 0.5% NP-40, 1 mM DTT, 1 mM EDTA, 0.2 pmol biotin-RNA in 10 uL, 6% PAGE in 0.5x TBE; temperature not stated; RBP-ELISA …
# [22] = tested on: PPR2.0t8 (synthetic designer (scaffold from Arabidopsis PPR consensus)); experiment: RBP-ELISA; details: cell lysate, EMSA: 20 mM Tris-HCl pH 8.0, 150 mM NaCl, 0.5% NP-40, 1 mM DTT, 1 mM EDTA, 0.2 pmol biotin-RNA in 10 uL, 6% PAGE in 0.5x TBE, temperature not stated
# [23] = tested on: PPR2.0t8 (synthetic designer (scaffold from Arabidopsis PPR consensus)); experiment: EMSA; details: apparent; EMSA: 20 mM Tris-HCl pH 8.0, 150 mM NaCl, 0.5% NP-40, 1 mM DTT, 1 mM EDTA, 0.2 pmol biotin-RNA in 10 uL, 6% PAGE in 0.5x TBE; temperature not stated; RBP-ELISA …
sequence,measurement,setting,value
GACAUGCGUGAUGUGGAGUUAAGGCGACUG [Probe_t19],binding signal,[1],1.19e+07 luminescence
same,Kd,[2],0.173 µM
GACAUGCAAGGAUAAUAUCAAACACGACUG [Probe_t15],binding signal,[3],2.84e+07 luminescence
same,Kd,[4],0.041 µM
GACAUGCCCCAUAGAUGUGACAAGCGACUG [Probe_t23],binding signal,[5],3.27e+07 luminescence
same,Kd,[6],0.0104 µM
GACAUGCGCAGAUAAUUAAUAAGAAGACUG [Probe_t14],binding signal,[7],1.33e+07 luminescence
same,Kd,[8],0.197 µM
GACAUGCGAAUGAACUCUUCCGGGAGACUG [Probe_t1],binding signal,[9],6.64e+07 luminescence
same,Kd,[10],0.00345 µM
GACAUGCGGCAAAAAGAUCACUGUAGACUG [Probe_t4],binding signal,[11],5.98e+07 luminescence
same,Kd,[12],0.00257 µM
GACAUGCGACUCAGGAAUCGGCUCUGACUG [Probe_t11],binding signal,[13],3.78e+07 luminescence
same,Kd,[14],0.0633 µM
GACAUGCGGCGGGGCACUGUGCGUGGACUG [Probe_t24],Kd,[15],0.011 µM
GACAUGCCAACAUCAGUCUGAUAAGGACUG [Probe_t5],binding signal,[16],1.67e+07 luminescence
same,Kd,[17],0.167 µM
GACAUGCCUGAGUCAUAACCAGCCUGACUG [Probe_t3],binding signal,[18],3.35e+07 luminescence
same,Kd,[19],0.0592 µM
GACAUGCGAGAGGAAGCCUGAGAGUGACUG [Probe_t2],binding signal,[20],5.68e+07 luminescence
same,Kd,[21],0.004 µM
GACAUGCCACUAUUUAAGUUAUCAAGACUG [Probe_t8],binding signal,[22],4.7e+07 luminescence
same,Kd,[23],0.00195 µM
